Measured values taken from article PMC11317896, “Stem lodging Resistance-1 controls stem strength by positively regulating the biosynthesis of cell wall components in Capsicum annuum L”.

T1: CaNAC6 (GST-NAC6 fusion) (Capsicum annuum, UniProt A0A1U8EDX1 1-299)
T1 sequence: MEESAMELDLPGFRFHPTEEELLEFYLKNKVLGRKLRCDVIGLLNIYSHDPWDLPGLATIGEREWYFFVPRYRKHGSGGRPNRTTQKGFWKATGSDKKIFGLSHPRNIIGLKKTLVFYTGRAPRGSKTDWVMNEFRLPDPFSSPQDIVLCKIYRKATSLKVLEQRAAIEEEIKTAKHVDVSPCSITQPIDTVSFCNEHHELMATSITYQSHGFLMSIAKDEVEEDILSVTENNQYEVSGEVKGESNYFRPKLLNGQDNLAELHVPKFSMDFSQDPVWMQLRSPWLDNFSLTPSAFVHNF

B1: CaSLR1 SNBE2 mutant probe (dsDNA)
DNA 1: GTTGTGTTTCTCTTTTATACGTTGGTCGT
DNA 2: ACGACCAACGTATAAAAGAGAAACACAAC
B2: CaSLR1 SNBE3 mutant probe (dsDNA)
DNA 1: TCTTAGTACTTATACCTCAAGGCGCAAGG
DNA 2: CCTTGCGCCTTGAGGTATAAGTACTAAGA
B3: CaSLR1 SNBE1 mutant probe (dsDNA)
DNA 1: CTTTTGGATTTGTCTTGTAAGAAGATCAA
DNA 2: TTGATCTTCTTACAAGACAAATCCAAAAG

Target: T1, CaNAC6 (GST-NAC6 fusion)
Test: EMSA; LightShift chemiluminescence EMSA kit (Bes5003), 6% acrylamide gel; buffer, salt, pH and temperature not stated
Details: protein: recombinant; tags: GST; chain copies: 2; label: biotin

Binding result, no binding:
B1
B2
B3
